Patent publication US20050064507A1, “Determining kinase specificity” (priority 2003, published 2005)
Square brackets hold non-standard residues; d marks the D form. Ends that are not written are not given here. pS = N[C@@H](COP(=O)(O)O)C(=O)O

Columns and labels:
[1] = molecular target: T1, PKC-theta (Homo sapiens, UniProt Q04759); assay: In vitro kinase assay: peptide phosphorylation by PKC-theta; type: biochemical; conditions: for Measured in vitro phosphorylation by PKC-theta: normalized to best substrate
T1 construct: His-tag; made in house; host or cells: baculovirus-infected Sf9 cells
Text: A second strategy for validation of the PSSM derived from the methods described herein is to identify sequences represented in the human proteome that have low percentiles derived from the PSSM, to synthesize peptides that have those sequences, and test the efficiency of phosphorylation of those peptides by the kinase of interest. […] The results are shown for individual peptides (FIG. 11, panel A) or for groups of peptides aggregated by percentile prediction (FIG. 11, panel B). As with the testing described above with prospectively chosen peptides, the percentile scores are highly predictive of phosphorylation by the relevant kinase.
An example of the purification procedure used for production of active kinase is as follows. A preparation of PKC-theta was prepared using a Gateway expression construct containing PKC-theta that was expressed in baculovirus, which were used to infect Sf9 cells. The cell pellet from a liter of baculovirus-infected Sf9 cells was resuspended in 20 volumes (60 ml) of extraction buffer (20 mM Na phosphate buffer pH 7.5, 500 mM NaCl, 5 mM pyrophosphate, 10% glycerol, 10 mM imidazole, 1 mM PMSF), sonicated twice for one minute (1 cm tip at 60% power and 50% duty cycle) and cell disruption was verified microscopically. The sample was adjusted to five mM MgCl2 and treated with one U benzonase/ml for an additional 20 minute on ice. The sample was clarified by centrifugation in a JA-20 rotor at 15K for 30 min at 4° C., filtered through a […] filter and applied at 0.5 ml/min to a one ml chelating sepharose column previously charged with nickel and equilibrated with extraction buffer. The column was washed with extraction buffer at one ml/min to baseline and eluted in a 20 ml gradient (20-500 mM imidazole in extraction buffer) into one ml fractions that were analyzed by SDS-PAGE. Fractions with the highest concentration of protein were pooled, were dialyzed twice against one liter of 20 mM Na PO4 pH 7.5, 50 mM NaCl buffer. The kinase pool was dialyzed twice against 20 mM HEPES pH 7.4, 100 mM NaCl, 2 mM EDTA, 5 mM DTT, 0.05% Triton-X-100. After dialysis, the sample was adjusted to 50% glycerol and quick-frozen in a dry ice/ethanol bath.
The conditions of the kinase assay and the amount of active kinase used varied with the kinase and with the accuracy needed. For a typical experiment, 5-20 ng of kinase was used per well and each peptide pool was assayed in duplicate wells. Note that the absolute amount of kinase used was not usually a critical parameter, because the desired information related to specificity of the kinase not its absolute activity, and robustness of the assay depends on comparisons of the same amount of kinase on different peptides. The combination of kinase concentration and assay duration was modified to assure that the stoichiometry of peptide phosphorylation never exceeded 5%. The choice of kinase buffer depended on the kinase being analyzed. For studies of PKC, 100 mM HEPES, 0.05% Triton-X100, 1 mM CaCl2, 20 mM MgCl2, 0.2 mg/ml phosphatidyl serine (Avanti Polar Lipids), PMA 100 ng/ml was typically used. The lipid stock was prepared by transferring 3 mg phosphatidyl serine into iced mixture of 450 μl water plus 50 μl of 10% Triton-X100, sonicating 10 times on ice for 1 sec each.
The kinase reaction mixture was assembled by sequential addition to a tube held on ice of: 5 μl peptide (100 μM for final concentration of 10 μM), 15 μl of kinase (typically 5 ng/well, in appropriate kinase buffer), 30 μl of ATP (1 uCi/well of ^32P-gamma ATP in a stock of 167 μM cold ATP in the kinase buffer; for final concentration for 100 μM ATP). The mixture was rapidly warmed to desired reaction temperature (30° C. for PKC) and incubated for the desired duration (usually 10 minutes). The kinase assay was terminated by transfer to 4° C. water batch, and rapid addition of an equal volume (50 μl) of stop solution [0.1M ATP+0.1M EDTA in water, pH 8]. […]

[2] = test system: pPKC antibody; assay: ELISA binding of pPKC antibody to synthesized SHP-1 phosphopeptides; conditions: for Binding of pPKC antibody: ELISA on phosphopeptide, normalized to the value for the Ser-591 peptide; for binding of pPKC antibody to phosphorylated peptide: ELISA
Protocol: Tests were conducted to test whether SHP-1 is phosphorylated in vivo at Ser-591, Ser-26 or Ser-300. To do so, a strategy was employed that used a commercially available antibody from Cell Signaling Technology that is referred to as a phospho-PKC motif antibody (designated herein as pPKC Ab). (See U.S. Pat. No. 6,441,140 and Cell Signaling Technology Datasheet for ‘Phospho-(Ser) PKC Substrate Antibody’). […] Such antibodies can be used for detection of unknown proteins that contain phosphorylation sites conforming to the motif to which they bind. For example, phosphorylated proteins can be detected on two-dimensional gels with the pPKC Ab and the identity of these phosphorylated proteins can be confirmed by the observed molecular weight, isoelectric point and other information such as the predictive algorithms provided herein. Similarly, such detected proteins can be enriched by classical biochemical separations, and when sufficiently enriched, can be identified by mass spectrometry (Astoul E et al. 2003. J Biol Chem 278:9267-9275).
Because these studies of SHP-1 were an early precedent-setting study, a rigorous approach was adopted in determining whether pPKC antibody binding included one or more of the three predicted SHP-1 sites. Phosphorylated peptides corresponding to the three best predicted PKC sites were synthesized (Table 7) in microtiter wells using a method of prior art described in U.S. Pat. No. 6,031,074. In addition, phosphorylated peptides corresponding to others sites in SHP-1 that match part of the motif detected by the pPKC antibody were also synthesized. Those phosphorylated peptides were then analyzed for reactivity with the pPKC antibody in an ELISA assay.
Among the phosphorylated peptides corresponding to sites in SHP-1, the best binding of pPKC antibody was detected with the phosphorylated peptide corresponding to Ser-591 (Table 7; […]).

T1 sequence (Q04759 whole entry): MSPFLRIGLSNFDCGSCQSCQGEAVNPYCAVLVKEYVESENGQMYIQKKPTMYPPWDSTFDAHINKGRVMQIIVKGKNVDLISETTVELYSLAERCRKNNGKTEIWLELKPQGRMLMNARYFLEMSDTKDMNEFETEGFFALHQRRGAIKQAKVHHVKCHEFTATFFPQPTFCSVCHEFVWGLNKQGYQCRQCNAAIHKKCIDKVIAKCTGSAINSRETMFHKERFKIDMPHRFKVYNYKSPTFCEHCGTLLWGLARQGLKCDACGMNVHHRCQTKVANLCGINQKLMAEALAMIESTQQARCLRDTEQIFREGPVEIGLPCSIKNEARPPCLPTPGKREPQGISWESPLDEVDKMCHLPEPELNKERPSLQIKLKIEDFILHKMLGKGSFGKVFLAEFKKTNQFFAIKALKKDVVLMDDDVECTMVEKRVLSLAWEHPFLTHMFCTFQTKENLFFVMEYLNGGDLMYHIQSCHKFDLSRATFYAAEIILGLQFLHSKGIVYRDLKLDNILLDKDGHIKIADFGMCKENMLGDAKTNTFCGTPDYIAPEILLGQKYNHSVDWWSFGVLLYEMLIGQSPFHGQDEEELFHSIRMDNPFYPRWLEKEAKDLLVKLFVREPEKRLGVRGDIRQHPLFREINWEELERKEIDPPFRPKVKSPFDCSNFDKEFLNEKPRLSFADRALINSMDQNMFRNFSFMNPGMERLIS

| Measured in vitro phosphorylation by PKC-theta [1] [%] | Substance | further results |
| --- | --- | --- |
| 100 | 168 (AMSRSASKRRSR) [compound 168] |  |
| 100 | 169 (RTRSRRLTFRK) [compound 169] |  |
| 98 | 170 (VKLRRSKKRTKR) [compound 170] |  |
| 92 | 171 (RRGRRSTKKRRR) [compound 171] |  |
| 86 | 172 (VRRRRSQRISQR) [compound 172] |  |
| 85 | 173 (RSGRRRGSQKS) [compound 173] |  |
| 83 | 174 (KKERRRNSINRN) [compound 174] |  |
| 80 | 175 (KKRRTKSSRRGV) [compound 175] |  |
| 66 | 176 (RRERSRSRRKQ) [compound 176] |  |
| 66 | 177 (RRRRRRSRTFSR) [compound 177] |  |
| 65 | 178 (RRRRSRTFSRS) [compound 178] |  |
| 65 | 179 (KRHYRKSVRSRS) [compound 179] |  |
| 65 | 180 (FLRRSSSRRNRS) [compound 180] |  |
| 62 | 181 (TGERKRKSVRG) [compound 181] |  |
| 61 | 182 (TKKKRGSYRGGS) [compound 182] |  |
| 55 | 183 (ARRSKRSRRRET) [compound 183] |  |
| 54 | 184 (FRASSRSTTK) [compound 184] |  |
| 51 | 185 (KKFKRRLSLTLR) [compound 185] |  |
| 50 | 186 (DFRRRRSFRRIA) [compound 186] |  |
| 48 | 187 (LRRKSSTRHIHA) [compound 187] |  |
| 44 | 188 (ERGRRGSKKGSI) [compound 188] |  |
| 43 | 189 (GRRRRSRSKVK) [compound 189] |  |

| Measured in vitro phosphorylation by PKC-theta [1] [%] | Substance | further results |
| --- | --- | --- |
| 40 | 190 (RRRRHTMDKDSR) [compound 190] |  |
| 38 | 191 (HKRNSVRLVIR) [compound 191] |  |
| 35 | 192 (GNRKGKSKKWRQ) [compound 192] |  |
| 35 | 193 (PLRKSSLKKGGR) [compound 193] |  |
| 34 | 194 (KRRKRKSLQRHK) [compound 194] |  |
| 33 | 195 (PGSSHRKTKK) [compound 195] |  |
| 32 | 196 (RWKRRRSYSREH) [compound 196] |  |
| 32 | 197 (ILRPSKSVKLRS) [compound 197] |  |
| 28 | 198 (RRRRPTKSKGSK) [compound 198] |  |
| 27 | 199 (RGRRSRSRLRRR) [compound 199] |  |
| 26 | 200 (EQQRRALSFRQ) [compound 200] |  |
| 25 | 201 (TQDRRKSLFKKI) [compound 201] |  |
| 24 | 202 (VMKRKFSLRAAE) [compound 202] |  |
| 24 | 203 (VRRSKKSKKKES) [compound 203] |  |
| 22 | 204 (RFSRRSSSWRIL) [compound 204] |  |
| 22 | 205 (EGRRSRSRRYSG) [compound 205] |  |
| 19 | 206 (KSSRNSTSVKKK) [compound 206] |  |
| 18 | 207 (SFRGHITRKKLK) [compound 207] |  |
| 17 | 208 (VSRPRKSRKRVD) [compound 208] |  |
| 17 | 209 (DKEKSKGSLKRK) [compound 209] | in vitro phosphorylation by PKC [1]: phosphorylated by PKC |
| 16 | 210 (PLRRRESMHVEQ) [compound 210] |  |
| 16 | 211 (RSRSYSRSRSR) [compound 211] |  |

| Measured in vitro phosphorylation by PKC-theta [1] [%] | Substance | further results |
| --- | --- | --- |
| 13 | 212 (VSRGSSLKILSK) [compound 212] |  |
| 13 | 213 (RHSRSRSRHRLS) [compound 213] |  |
| 13 | 214 (SRRRSPSYSRHS) [compound 214] |  |
| 12 | 215 (TKKRSKSRSKER) [compound 215] |  |
| 11 | 216 (SCRTSSRKRAGK) [compound 216] |  |
|  | 289 (MKNAHAKA[pS]RTSSKHKE) [compound 289] | Binding of pPKC antibody [2]: 18 |
|  | 290 (RVILQGRD[pS]NIPGSDYI) [compound 290] | Binding of pPKC antibody [2]: 13 |
|  | 291 (AHAKASRT[pS]SKHKEDVY) [compound 291] | Binding of pPKC antibody [2]: 12 |
|  | 292 (KKKLEVLQ[pS]QKGQESEY) [compound 292] | Binding of pPKC antibody [2]: 11 |
|  | 293 (PSEPGGVL[pS]FLDQINQR) [compound 293] | Binding of pPKC antibody [2]: 9 |
|  | 294 (HAKASRTS[pS]KHKEDVYE) [compound 294] | Binding of pPKC antibody [2]: 7 |
|  | 295 (PWTFLVRE[pS]LSQPGDFV) [compound 295] | Binding of pPKC antibody [2]: 5 |
|  | 296 (KNQGDFSL[pS]VRVGDQVT) [compound 296] | Binding of pPKC antibody [2]: 3 |
|  | 297 (PLNCSDPT[pS]ERWYHGHM) [compound 297] | Binding of pPKC antibody [2]: 0 |
|  | 298 (ADKEKSKG[pS]LKRK) [compound 298] | Binding of pPKC antibody [2]: 100 |
|  | 299 (LKGRGVHG[pS]FLARPSRK) [compound 299] | Binding of pPKC antibody [2]: 54 |
|  | 300 (HGSFLARP[pS]RKNQGDFS) [compound 300] | Binding of pPKC antibody [2]: 39 |
|  | ADKEKSKG-pS-LKRK---- (ADKEKSKG[pS]LKRK) [SEQ ID NO 298] | binding of pPKC antibody to phosphorylated peptide [2]: best binding |
|  | HGSFLARP-pS-RKNQGDFS (HGSFLARP[pS]RKNQGDFS) [SEQ ID NO 300] | binding of pPKC antibody to phosphorylated peptide [2]: distinctly lower but readily detectable binding |
|  | LKGRGVHG-pS-FLARPSRK (LKGRGVHG[pS]FLARPSRK) [SEQ ID NO 299] | binding of pPKC antibody to phosphorylated peptide [2]: distinctly lower but readily detectable binding |
